The conditions of series [1]: human serum and full blood (EDTA), room temperature, 30 min and 2 hours; CNP-22 EIA; n = 12.
Experimental: We studied 12 male volunteers (mean age 29 ± 2 years, normal weight, no drug therapy, no history of cardiovascular or other diseases, 3 smokers). From all investigated subjects informed consent was obtained. Triplets of fasting blood samples were taken from all volunteers at 8 o’clock in the morning. Blood samples were collected using the 7.5 ml S-Monovette® collection system (Sarstedt, Nümbrecht, Germany) containing either clotting activator (Kaolin) for serum samples, sodium-citrate for plasma samples or Potassium–EDTA for full blood samples. All samples for baseline analyses were immediately centrifuged at 2,000 × g for 10 min at 4°C and supernatant was stored at −70°C until analysis. For mid-term analyses (30 minutes or 2 hours), plasma samples were centrifuged at 2,000 × g for 10 min at room temperature. Supernatant was removed and stored at room temperature for 30 min or 2 hours. Following blood clotting, serum samples were processed identically to plasma samples. Supernatant was saved and also stored at room temperature for 30 min or 2 hours. Full blood samples were stored at room temperature without centrifugation. […] The concentration of CNP was measured using the CNP-22 EIA Kit (#EK-012-03, Phoenix Pharmaceuticals, Karlsruhe, Germany) according to the manufacturer’s protocol. […] Data were analyzed using MedCalc® for Windows, Version 10.0.1.0 (MedCalc Software, Mariakerke, Belgium).
For series [2] the following is noted: unknown storage conditions of blood samples; ref manufacturer's protocol; cited from earlier work. How it is done:
Consequently, the stability of the CNP peptide is most likely not affected by any delay in sample processing for at least two hours. ProCNP has already been reported (manufacturer’s protocol, unknown storage conditions of blood samples) to be stable for at least 2.5 hours. Accordingly, our experiments confirmed the stability of NT-proCNP even at room temperature.

For the molecule C-type natriuretic peptide [CNP], the “stability of CNP in serum and full blood samples” value in series [1] is “stable in serum and in full blood samples for at least two hours at room temperature”.

B1: ProCNP: pro-peptide of CNP, reported stable per the manufacturer's protocol (peptide, UniProt P23582 24-126, looked up)
pro-form: KPGAPPKVPRTPPAEELAEPQAAGGGQKKGDKAPGGGGANLKGDRSRLLRDLRVDTKSRAAWARLLQEHPNARKYKGANKKGLSKGCFGLKLDRIGSMSGLGC
modifications: pro-form
Regarding B1, the “time for which ProCNP is stable” value in series [2] is listed as “at least 2.5 hours”.
